± gives the standard deviation of the averaged measurements.
How the values were obtained:
[1] = tested on: Saccharomyces cerevisiae; experiment: protein stability index of tFT-peptide fusion (C-terminal peptide) (PSI (0-1 scale)); higher = more stable (slower turnover)
Procedure: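 MPS profiling in S. cerevisiae of the tFT-X12 degron library: putative degron peptides plus stable controls, 12 aa, fused to the C-terminus of a sfGFP-mCherry timer. Cells are FACS-sorted into 8 mCherry/sfGFP bins and deep-sequenced. PSI runs from 0 (unstable) to 1 (stable). Backgrounds are wild type, das1Δ and doa10Δ at 30 °C, and wild type, das1Δ, cdc34-1 and cdc53-1 at 37 °C; 2-3 technical replicates each.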

[2] = tested on: Saccharomyces cerevisiae; experiment: as above; details: genetic background: wild type; temperature: 30 C
[3] = genetic background: cdc34-1, temperature: 37 C
[4] = genetic background: cdc53-1, temperature: 37 C
[5] = genetic background: das1 deletion, temperature: 30 C
[6] = genetic background: das1 deletion, temperature: 37 C
[7] = genetic background: doa10 deletion, temperature: 30 C
[8] = genetic background: wild type, temperature: 30 C
[9] = genetic background: wild type, temperature: 37 C
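Further: PSI is a weighted mean of sequencing reads over stability bins, variants kept only with over 10 reads, mCherry proximal and sfGFP distal, peptide attached via GGGS linker.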

Sequence: SVLLVFRFFWEL
- protein stability index [1, 3]: 0.417 ± 0.012
- protein stability index [1, 4]: 0.461 ± 0.018
- protein stability index [1, 5]: 0.397 ± 0.026
- protein stability index [1, 6]: 0.5056 ± 0.0022
- protein stability index [1, 7]: 0.295 ± 0.018
- protein stability index [1, 8]: 0.292 ± 0.029
- protein stability index [1, 9]: 0.445 ± 0.0082
- protein stability index [2]: 0.405 ± 0.098

Sequence: FLCLLASFVVCF
- protein stability index [1, 3]: 0.3271 ± 0.00067
- protein stability index [1, 4]: 0.312 ± 0.008
- protein stability index [1, 5]: 0.281 ± 0.039
- protein stability index [1, 6]: 0.384 ± 0.029
- protein stability index [1, 7]: 0.249 ± 0.0083
- protein stability index [1, 8]: 0.285 ± 0.028
- protein stability index [1, 9]: 0.336 ± 0.015
- protein stability index [2]: 0.363 ± 0.008

Sequence: SCLRVYFSVVVS
- protein stability index [1, 3]: 0.231 ± 0.013
- protein stability index [1, 4]: 0.295 ± 0.048
- protein stability index [1, 5]: 0.286 ± 0.037
- protein stability index [1, 6]: 0.389 ± 0.015
- protein stability index [1, 7]: 0.258 ± 0.0076
- protein stability index [1, 8]: 0.288 ± 0.017
- protein stability index [1, 9]: 0.36 ± 0.027
- protein stability index [2]: 0.359 ± 0.031

Sequence: HVSVIRRGICCA
- protein stability index [1, 3]: 0.266 ± 0.014
- protein stability index [1, 4]: 0.2978 ± 0.0018
- protein stability index [1, 5]: 0.271 ± 0.026
- protein stability index [1, 6]: 0.398 ± 0.0092
- protein stability index [1, 7]: 0.233 ± 0.0093
- protein stability index [1, 8]: 0.278 ± 0.015
- protein stability index [1, 9]: 0.3675 ± 0.0027
- protein stability index [2]: 0.374 ± 0.034

Sequence: APGGRGAAGPSC
- protein stability index [1, 3]: 0.67 ± 0.06
- protein stability index [1, 4]: 0.7207 ± 0.0065
- protein stability index [1, 5]: 0.631 ± 0.036
- protein stability index [1, 6]: 0.751 ± 0.033
- protein stability index [1, 7]: 0.639 ± 0.021
- protein stability index [1, 8]: 0.655 ± 0.033
- protein stability index [1, 9]: 0.704 ± 0.018
- protein stability index [2]: 0.69 ± 0.029

Sequence: SLGHIGFWRFAG
- protein stability index [1, 3]: 0.554 ± 0.0087
- protein stability index [1, 4]: 0.709 ± 0.0081
- protein stability index [1, 5]: 0.66 ± 0.009
- protein stability index [1, 6]: 0.77 ± 0.011
- protein stability index [1, 7]: 0.103 ± 0.018
- protein stability index [1, 8]: 0.108 ± 0.013
- protein stability index [1, 9]: 0.169 ± 0.0063
- protein stability index [2]: 0.191 ± 0.011

Sequence: GVRRRQLIWSVC
- protein stability index [1, 3]: 0.532 ± 0.022
- protein stability index [1, 4]: 0.644 ± 0.014
- protein stability index [1, 5]: 0.468 ± 0.024
- protein stability index [1, 6]: 0.656 ± 0.0066
- protein stability index [1, 7]: 0.145 ± 0.0088
- protein stability index [1, 8]: 0.164 ± 0.039
- protein stability index [1, 9]: 0.28 ± 0.011
- protein stability index [2]: 0.241 ± 0.092

Sequence: WHLLRFETQMFC
- protein stability index [1, 3]: 0.571 ± 0.018
- protein stability index [1, 4]: 0.7091 ± 0.0027
- protein stability index [1, 5]: 0.611 ± 0.037
- protein stability index [1, 6]: 0.712 ± 0.022
- protein stability index [1, 7]: 0.151 ± 0.028
- protein stability index [1, 8]: 0.164 ± 0.016
- protein stability index [1, 9]: 0.337 ± 0.0026
- protein stability index [2]: 0.172 ± 0.049

Sequence: CVFCRVAVGVDG
- protein stability index [1, 3]: 0.5389 ± 0.0011
- protein stability index [1, 4]: 0.5838 ± 0.0043
- protein stability index [1, 5]: 0.438 ± 0.03
- protein stability index [1, 6]: 0.616 ± 0.0086
- protein stability index [1, 7]: 0.428 ± 0.028
- protein stability index [1, 8]: 0.439 ± 0.0076
- protein stability index [1, 9]: 0.5899 ± 0.0034
- protein stability index [2]: 0.516 ± 0.026

Sequence: YYFFLTFLCYVF
- protein stability index [1, 3]: 0.153 ± 0.024
- protein stability index [1, 4]: 0.216 ± 0.039
- protein stability index [1, 5]: 0.154 ± 0.023
- protein stability index [1, 6]: 0.255 ± 0.01
- protein stability index [1, 7]: 0.148 ± 0.019
- protein stability index [1, 8]: 0.112 ± 0.027
- protein stability index [1, 9]: 0.221 ± 0.011
- protein stability index [2]: 0.207 ± 0.018

Sequence: SARSYLTERLLA
- protein stability index [1, 3]: 0.6255 ± 0.0024
- protein stability index [1, 4]: 0.714 ± 0.016
- protein stability index [1, 5]: 0.599 ± 0.021
- protein stability index [1, 6]: 0.721 ± 0.022
- protein stability index [1, 7]: 0.13 ± 0.018
- protein stability index [1, 8]: 0.162 ± 0.022
- protein stability index [1, 9]: 0.239 ± 0.0068
- protein stability index [2]: 0.252 ± 0.0087

Sequence: VVGVVVCWGRGW
- protein stability index [1, 3]: 0.603 ± 0.015
- protein stability index [1, 4]: 0.666 ± 0.029
- protein stability index [1, 5]: 0.463 ± 0.024
- protein stability index [1, 6]: 0.653 ± 0.0096
- protein stability index [1, 7]: 0.448 ± 0.019
- protein stability index [1, 8]: 0.469 ± 0.015
- protein stability index [1, 9]: 0.6212 ± 0.0058
- protein stability index [2]: 0.496 ± 0.046

Sequence: PVWLSFHFFLCA
- protein stability index [1, 3]: 0.426 ± 0.041
- protein stability index [1, 4]: 0.48 ± 0.011
- protein stability index [1, 5]: 0.369 ± 0.019
- protein stability index [1, 6]: 0.509 ± 0.013
- protein stability index [1, 7]: 0.321 ± 0.02
- protein stability index [1, 8]: 0.332 ± 0.017
- protein stability index [1, 9]: 0.469 ± 0.0063
- protein stability index [2]: 0.44 ± 0.061

Sequence: FGVLLLFLFFLP
- protein stability index [1, 3]: 0.347 ± 0.0038
- protein stability index [1, 4]: 0.444 ± 0.02
- protein stability index [1, 5]: 0.337 ± 0.022
- protein stability index [1, 6]: 0.4673 ± 0.0036
- protein stability index [1, 7]: 0.322 ± 0.0086
- protein stability index [1, 8]: 0.323 ± 0.0085
- protein stability index [1, 9]: 0.427 ± 0.0068
- protein stability index [2]: 0.413 ± 0.041

Sequence: SLVLLLLITFSL
- protein stability index [1, 3]: 0.431 ± 0.023
- protein stability index [1, 4]: 0.507 ± 0.015
- protein stability index [1, 5]: 0.376 ± 0.025
- protein stability index [1, 6]: 0.527 ± 0.014
- protein stability index [1, 7]: 0.377 ± 0.016
- protein stability index [1, 8]: 0.373 ± 0.02
- protein stability index [1, 9]: 0.495 ± 0.021
- protein stability index [2]: 0.491 ± 0.017

Sequence: PVILISWQLRCY
- protein stability index [1, 3]: 0.018 ± 0.0019
- protein stability index [1, 4]: 0.0284 ± 0.0013
- protein stability index [1, 5]: 0.0318 ± 0.01
- protein stability index [1, 6]: 0.049 ± 0.011
- protein stability index [1, 7]: 0.0188 ± 0.0012
- protein stability index [1, 8]: 0.0174 ± 0.0032
- protein stability index [1, 9]: 0.0417 ± 0.0029
- protein stability index [2]: 0.0229 ± 0.026

Sequence: ASFVCWSVCALG
- protein stability index [1, 3]: 0.508 ± 0.026
- protein stability index [1, 4]: 0.545 ± 0.006
- protein stability index [1, 5]: 0.4 ± 0.022
- protein stability index [1, 6]: 0.525 ± 0.015
- protein stability index [1, 7]: 0.384 ± 0.029
- protein stability index [1, 8]: 0.398 ± 0.019
- protein stability index [1, 9]: 0.5104 ± 0.0049
- protein stability index [2]: 0.413 ± 0.025

Sequence: VVPVGLYSVILV
- protein stability index [1, 3]: 0.427 ± 0.012
- protein stability index [1, 4]: 0.447 ± 0.028
- protein stability index [1, 5]: 0.322 ± 0.03
- protein stability index [1, 6]: 0.4839 ± 0.0039
- protein stability index [1, 7]: 0.289 ± 0.0065
- protein stability index [1, 8]: 0.306 ± 0.021
- protein stability index [1, 9]: 0.451 ± 0.02
- protein stability index [2]: 0.4269 ± 0.0008

Sequence: VWYSCWSFLVLF
- protein stability index [1, 3]: 0.444 ± 0.026
- protein stability index [1, 4]: 0.548 ± 0.011
- protein stability index [1, 5]: 0.416 ± 0.034
- protein stability index [1, 6]: 0.55122 ± 0.00022
- protein stability index [1, 7]: 0.2 ± 0.011
- protein stability index [1, 8]: 0.207 ± 0.024
- protein stability index [1, 9]: 0.362 ± 0.035
- protein stability index [2]: 0.291 ± 0.024

— the supplement of paper PMC10724198
